Patent US20200197536A1
pKd: −log10 of the molar value.

Target: Met (hepatocyte growth factor receptor) on Hep3B cells (human) (UniProt P08581)
Test: flow cytometry saturation binding of Alexa Fluor 647-labeled protocells (0.015 wt % MC40, about 6 peptides/particle) on cytochalasin D-treated Hep3B cells; non-specific binding measured with saturating unlabeled hepatocyte growth factor and subtracted

Sequence of UniProt P08581 (P08581 25-1390): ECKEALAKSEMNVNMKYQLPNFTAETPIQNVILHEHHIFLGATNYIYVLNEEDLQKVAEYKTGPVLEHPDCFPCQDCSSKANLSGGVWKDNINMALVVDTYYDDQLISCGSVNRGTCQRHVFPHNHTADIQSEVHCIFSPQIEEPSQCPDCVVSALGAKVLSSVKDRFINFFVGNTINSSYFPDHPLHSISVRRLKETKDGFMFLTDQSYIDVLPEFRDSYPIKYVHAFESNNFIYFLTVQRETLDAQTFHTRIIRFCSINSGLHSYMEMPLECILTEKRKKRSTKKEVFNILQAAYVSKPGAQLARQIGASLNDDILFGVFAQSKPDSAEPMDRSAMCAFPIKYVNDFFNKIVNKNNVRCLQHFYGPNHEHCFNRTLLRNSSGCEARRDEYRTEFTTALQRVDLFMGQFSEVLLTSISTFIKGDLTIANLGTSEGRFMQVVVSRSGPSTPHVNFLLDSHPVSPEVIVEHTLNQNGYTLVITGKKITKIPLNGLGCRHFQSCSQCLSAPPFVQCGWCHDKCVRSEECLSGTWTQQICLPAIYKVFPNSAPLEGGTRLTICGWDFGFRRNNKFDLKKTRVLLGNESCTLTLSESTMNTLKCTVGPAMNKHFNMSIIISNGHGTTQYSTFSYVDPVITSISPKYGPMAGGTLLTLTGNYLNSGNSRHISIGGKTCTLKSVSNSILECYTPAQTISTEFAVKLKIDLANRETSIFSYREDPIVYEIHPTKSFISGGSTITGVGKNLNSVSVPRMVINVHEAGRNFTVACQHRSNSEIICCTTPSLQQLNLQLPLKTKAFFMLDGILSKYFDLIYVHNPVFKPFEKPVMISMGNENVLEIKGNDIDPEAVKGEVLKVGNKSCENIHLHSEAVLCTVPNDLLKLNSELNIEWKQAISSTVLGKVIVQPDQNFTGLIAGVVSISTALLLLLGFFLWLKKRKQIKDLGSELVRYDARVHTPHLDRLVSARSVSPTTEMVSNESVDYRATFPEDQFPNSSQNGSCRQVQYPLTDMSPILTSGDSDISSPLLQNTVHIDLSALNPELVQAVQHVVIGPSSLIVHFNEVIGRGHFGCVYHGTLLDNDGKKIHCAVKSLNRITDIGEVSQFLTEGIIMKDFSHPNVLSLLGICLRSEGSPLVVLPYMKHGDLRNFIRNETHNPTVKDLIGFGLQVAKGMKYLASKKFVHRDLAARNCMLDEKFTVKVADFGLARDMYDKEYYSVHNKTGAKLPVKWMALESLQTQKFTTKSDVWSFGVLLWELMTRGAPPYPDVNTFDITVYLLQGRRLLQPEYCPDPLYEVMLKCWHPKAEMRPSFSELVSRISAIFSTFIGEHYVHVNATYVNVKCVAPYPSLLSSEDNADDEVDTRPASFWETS

pKd: 8.98
Substance: MC40-targeted protocells (mesoporous silica nanoparticle-supported lipid bilayer modified with 0.015 wt % MC40 targeting peptide)
